Consider one protein from patent publication US7919300B2, “Glucose isomerase mutants” (priority 2004, dated 2011).

Substrate in the series: OC[C@H]1OC(O)[C@H](O)[C@@H](O)[C@@H]1O
In words: Measurement of kinetic parameters of glucose isomerase mutant MGI-4 with D-glucose as substrate. It is filed as biochemical, Thermoanaerobacterium saccharolyticum. Particulars: pH 6.5, 20 mM sodium phosphate, 250 μM CoCl2, 5 mM MgCl2, 10 minutes. As for the experimental part: Fragment AFSR was amplified using primer pair 182AF (see Table 1 below) and 187SR (see Table 1) on the following condition: 20 mM Tris-HCl (pH 8.8), 10 mM KCl, 10 mM (NH4)2SO4, 2 mM MgSO4, 0.1% Triton X-100, 0.4 μM Primer 182AF and 0.4 μM Primer 187SR, 50 μM DATP, 50 μM dTTP, 50 μM dCTP, 50 μM dGTP, 1.5 U Pfu DNA polymerase, 20 ng pGEMT-TS, and the total volume was adjusted to 50 μl with distilled water. The PCR amplification program for the reaction was: 95° C., 3 min; then 35 cycles of 95° C., 50 seconds, 52° C., 30 seconds, 72° C., 180 seconds; and with an additional 5 minutes at 72° C. at the end of the reaction. The PCR product, fragment AFSR, was separated on 1% agarose gel and recovered using QIAquick Gel Extraction Kit (QIAGEN, German). Fragment SFQR was amplified using primer pair 187SF (Example 4) and 299QR (Example 5) on the following condition: 20 mM Tris-HCl (pH 8.8), 10 mM KCl, 10 mM (NH4)2SO4, 2 mM MgSO4, 0.1% Triton X-100, 0.4 μM Primer 187SF and 0.4 μM Primer 299QR, 50 μM dATP, 50 μM dTTP, 50 μM dCTP, 50 μM dGTP, 1.5 U Pfu DNA polymerase, 20 ng pGEMT-TS, and the total volume was adjusted to 50 μl with distilled water. The PCR amplification program for the reaction was: 95° C., 3 min; then 35 cycles of 95° C., 50 seconds, 52° C., 30 seconds, 72° C., 180 seconds; and with an additional 5 minutes at 72° C. at the end of the reaction. The PCR product, fragment SFQR, was separated on 1% agarose gel and recovered using QIAquick Gel Extraction Kit (QIAGEN, German). The full-length glucose isomerase gene was then amplified on the following condition: 20 mM Tris-HCl (pH 8.8), 10 mM KCl, 10 mM (NH4)2SO4, 2 mM MgSO4, 0.1% Triton X-100, 0.4 μM Primer T1 and 0.4 μM Primer T2, 50 μM dATP, 50 μM dTTP, 50 μM dCTP, 50 μM dGTP, 1.5 U Pfu DNA polymerase, 20 ng fragment T1FR (Example 2), 20 ng fragment FFAR (Example 6), 20 ng […], 20 ng fragment SFQR and 20 ng fragment QFT2 (Example 5), and the total volume was adjusted to 50 μl with distilled water. The PCR amplification program for the reaction was: 95° C., 3 min; then 35 cycles of 95° C., 50 seconds, 52° C., 30 seconds, 72° C., 180 seconds; and with an additional 5 minutes at 72° C. at the end of the reaction. The full-length mutant MGI-4 was separated on 1% agarose gel and recovered using QIAquick Gel Extraction Kit (QIAGEN, German). Plasmid pGEMT-MGI-4, generated after ligation between MGI-4 and pGEMT-Easy, was transformed into competent E. coli HB101 and the transformants were screened for clones of glucose isomerase activity on 1% MacConkey agar plates containing 1% D-xylose and 50 mg/L ampicillin. pGEMT-MGI-4 DNA was then isolated from the positive clones and sequenced. The sequencing results confirmed that the desired site-directed mutations were correctly introduced. Its amino acid sequence was shown as SEQ ID NO.: 32 (see the Sequence Listing below).
The isolation and purification of glucose isomerase mutant MGI-4 were as described in Example 9, except the plasmid used was pGEMT-MGI-4. The partially purified enzyme was shown on FIG. 1. Other glucose isomerase mutants were also isolated and purified as described in Example 9.

B1: Thermoanaerobacterium saccharolyticum glucose isomerase mutant MGI-4 (W139F/R182A/F187S/T299Q), SEQ ID NO.: 32 (Thermoanaerobacterium saccharolyticum; … (protein)
chain: MNKYFENVSKIKYEGPKSNNPYSFKFYNPEEVIDGKTMEEHLRFSIAYWHTFTADGTDQFGKATMQRPWNHYTDPMDIAKARVEAAFEFFDKINAPFFCFHDRDIAPEGDTLRETNKNLDTIVAMIKDYLKTSKTKVLFGTANLFSNPRFVHGASTSCNADVFAYSAAQVKKALEITKELGAENYVSWGGREGYETLLNTDMELELDNFARFLHMAVDYAKEIGFEGQFLIEPKPKEPTKHQYDFDVANVLAFLRKYDLDKYFKVNIEANHATLAFHDFQHELRYARINGVLGSIDANQGDMLLGWDTDQFPTDIRMTTLAMYEVIKMGGFDKGGLNFDAKVRRASFEPEDLFLGHIAGMDAFAKGFKVAYKLVKDGVFDKFIEERYASYKEGIGADIVSGKADFKSLEKYALEHSQIVNKSGRQELLESILNQYLFAE
For B1, for the setting “other: MGI-4, 65° C., 65.0 °C”, the Km was determined as 27.9 mM, the kcat is 1009.0 min⁻¹ and the kcat/Km is 36.1 mM⁻¹ min⁻¹. Also, where the note is “other: MGI-4, 80° C., 80.0 °C”, the Km is 51.3 mM, the kcat was determined as 2981.1 min⁻¹ and the catalytic efficiency (kcat/Km) was 58.1 mM⁻¹ min⁻¹.
